Results reported in the supplement of paper PMC10567573.

Test: protein stability index of a GFP-peptide fusion (GPS, HEK-293T) (PSI 1-6); higher = more stable
Settings: c terminus: a fixed tail appended
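Also: lentivirally expressed fusions sorted by FACS into six bins by GFP to DsRed ratio, PSI derived from sequencing read proportions per bin multiplied by bin number.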

Protein: GKQAPRKKAQGKTQQNRKLTDFYP
- protein stability index (parent: IOH80936_28): 2.67

Protein: QKPLCASDGRTFLSRCEFQRAKCK
- protein stability index (parent: IOH81799_9): 2.71

Protein: QKELQDVGQSLRIKEQEVCKLQEQ [SASS6 WT]
- protein stability index (parent: IOH63533_44): 5.02

Protein: FSPDGPSRFRKAYKPEQPLVRLRG
- protein stability index (parent: IOH81790_52): 1.81

Protein: LLQRELMVPGTRHSAVLRDLRSGT
- protein stability index (parent: IOH81617_23): 2.54

Protein: ITWFKDFLPVDTSNNNGRIKQLRS
- protein stability index (parent: IOH82190_27): 1.83

Protein: VMTLPSDLRKHRRKLLSPVSREEN
- protein stability index (parent: IOH82170_31): 3.53

Protein: STTALGDKQRKANESKGTRESWDS [TCEB3B WT]
- protein stability index (parent: IOH63382_68): 3.77

Protein: EILGCPLPDPNNYYHRRNEMTTTD
- protein stability index (parent: IOH80553_49): 3.32

Protein: CSWKGATKQRIQDQKVPYIFRDNQ [CHIT1 WT]
- protein stability index (parent: IOH63601_52): 2.59

Protein: HVDPEEPWSPCSARFITDFLDNGY
- protein stability index (parent: IOH81847_67): 1.84

Protein: LLQRELAQEDSLNKLALQYGCKVA [LYSMD4 WT]
- protein stability index (parent: IOH63099_13): 1.92

Protein: SLGKQKVFIIRKSLLDELMEVQHF [SOAT2 WT]
- protein stability index (parent: IOH63195_17): 2.25

Protein: YVEVKEGKTWKQICDKHWTAKNSR
- protein stability index (parent: IOH81790_35): 2.24

Protein: HISSCKLGPQVSLDPMKNVTCENG
- protein stability index (parent: IOH81790_46): 3.95

Protein: GSLPWQGLKADTLKERYQKIGDTK [CSNK1G1 WT]
- protein stability index (parent: IOH82133_42): 4.1

Protein: SVIEPVQESSFRSRKIAVEDENDL
- protein stability index (parent: IOH80698_41): 5.18

Protein: ILFSLPPALDWDSVHVPGPHAMTI
- protein stability index (parent: IOH82149_45): 2.54

Protein: FVVEYHGDLIEITDAKKREALYAQ
- protein stability index (parent: IOH80936_41): 2.1

Protein: KKAQGKTQQNRKLTDFYPVRRSSR
- protein stability index (parent: IOH80936_29): 2.19

Protein: FICQATGDPRPKIVWNKKGKKVSN
- protein stability index (parent: IOH82190_8): 2.13

Protein: PGVHRRYSALREESAKDWETSPLP
- protein stability index (parent: IOH82170_4): 4.19

Protein: FIVDILQFLDIGPDVTRVGLLQYG
- protein stability index (parent: IOH81883_14): 2.92

Protein: LTSDLYAPMVAGALARLGTVTVIS [SLC25A39 WT]
- protein stability index (parent: IOH63154_27): 2.94

Protein: TQHLPRECLPENLGGYVKIDLATW
- protein stability index (parent: IOH82149_38): 1.88

Protein: TDDSYSCHCLKGFTLNPDKKTCRR
- protein stability index (parent: IOH81883_64): 2.25

Protein: YPEQSKGFHKAGSMLPPVNFSIVP
- protein stability index (parent: IOH63376_36): 1.94

Protein: YAGNLHESGVHGALLALDENFDHN
- protein stability index (parent: IOH82170_95): 2.51

Protein: VTYMNMTAYNKGRLQSSFWIVDKQ
- protein stability index (parent: IOH63495_20): 2.36

Protein: ELRNVQDVVEDYKKRYEEEINKRT
- protein stability index (parent: IOH63384_35): 3.49

Protein: TASTKNCMVGYDMGATRCDFTLSK
- protein stability index (parent: IOH80553_117): 2.15

Protein: RLLRFSSQIHNNGQSDFRPKNGRH
- protein stability index (parent: IOH81790_100): 2.72

Protein: KKPPEESTCFERPCFKWYTSPWSE [ADAMTSL2 WT]
- protein stability index (parent: IOH80445_141): 2.4

Protein: IDFLRVVRNQQSLAVSNMGARSKG
- protein stability index (parent: IOH82149_81): 2.4

Protein: SKPKTFQAYLDDCHRRYSCAHCRA [YPEL3 WT]
- protein stability index (parent: IOH80494_8): 1.87

Protein: SFRKFRYGYNNVVTIPAGATHILV
- protein stability index (parent: IOH81847_116): 2.6

Protein: FSEIRETSAKVNWMPPPSRADSFK
- protein stability index (parent: IOH81617_33): 3.45

Protein: LKGAFPARLKKVLIVGAPIWFRVP
- protein stability index (parent: IOH82149_30): 2.96

Protein: FGSRSLYSLGGVRSLNVASGSGKS
- protein stability index (parent: IOH63384_8): 1.86

Protein: DCAGSPQKPLCASDGRTFLSRCEF
- protein stability index (parent: IOH81799_8): 2.54

Protein: WIVDKQHVYIGSAGLDWQSLGQMK
- protein stability index (parent: IOH63495_23): 1.79

Protein: NKWTVQYNVSPLSWNVAVKFLMAR
- protein stability index (parent: IOH82149_6): 2.09

Protein: DMVSNIELPTRIHEEVYFEPSSSK
- protein stability index (parent: IOH80698_88): 3.89

Protein: GRKKYDIDPRNGIPKLTPGDNPYM
- protein stability index (parent: IOH63376_32): 3.52

Protein: TLDGYGIHPKSIDLDNYFTARRLL [NFE2L1 WT]
- protein stability index (parent: IOH81649_11): 1.93

Protein: RNALENIRKEMKLLEQAGSLKGSL [CRYL1 WT]
- protein stability index (parent: IOH81349_8): 3.44

Protein: NSISSDKEATVPCTEILTEKKDTI
- protein stability index (parent: IOH80698_58): 5.37

Protein: KRTYWPDLDAKIREALVLRSVRVR
- protein stability index (parent: IOH63495_45): 2.02

Protein: PALETQPQGDEEDIASRYPTLWTE
- protein stability index (parent: IOH81799_32): 4.26

Protein: FSLKTFKRKSEVERAVKRMRHLST
- protein stability index (parent: IOH81883_19): 2.06

Protein: VNVPGSFVCQCYSGYALAEDGKRC
- protein stability index (parent: IOH81883_50): 1.99

Protein: FTETNNHWPQGPTGPPGPPGPMGP [EMID1 WT]
- protein stability index (parent: IOH81855_48): 2.31

Protein: MVHVARLLLLLLTFFLRTDAETPP
- protein stability index (parent: IOH82190_1): 2.92
